Values of other authors as cited in article PMC3509699.
Like-named read-outs stand apart in the source and are kept apart here.

Tests used:
[1] = target: KV1.3 (Homo sapiens) (UniProt P22001)
[2] = target: KCa3.1 (Homo sapiens) (UniProt O15554)
[3] = target: KCa3.1 (Homo sapiens) (UniProt O15554); remark: listed apart in the source
[4] = target: KV1.3 (Homo sapiens) (UniProt P22001); remark: listed apart in the source

UniProt O15554, sequence (O15554 whole entry): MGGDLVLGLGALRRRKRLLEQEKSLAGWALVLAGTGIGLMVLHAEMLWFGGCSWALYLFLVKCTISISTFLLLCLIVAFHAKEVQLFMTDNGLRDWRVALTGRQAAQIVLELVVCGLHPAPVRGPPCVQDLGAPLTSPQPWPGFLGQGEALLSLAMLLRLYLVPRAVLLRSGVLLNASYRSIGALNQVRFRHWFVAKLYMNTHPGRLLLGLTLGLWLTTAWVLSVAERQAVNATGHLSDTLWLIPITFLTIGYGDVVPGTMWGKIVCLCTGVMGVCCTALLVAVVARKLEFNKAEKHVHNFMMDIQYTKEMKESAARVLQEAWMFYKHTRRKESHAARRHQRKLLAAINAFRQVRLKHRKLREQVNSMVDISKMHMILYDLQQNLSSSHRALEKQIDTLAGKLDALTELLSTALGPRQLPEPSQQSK
UniProt P22001, sequence (P22001 whole entry): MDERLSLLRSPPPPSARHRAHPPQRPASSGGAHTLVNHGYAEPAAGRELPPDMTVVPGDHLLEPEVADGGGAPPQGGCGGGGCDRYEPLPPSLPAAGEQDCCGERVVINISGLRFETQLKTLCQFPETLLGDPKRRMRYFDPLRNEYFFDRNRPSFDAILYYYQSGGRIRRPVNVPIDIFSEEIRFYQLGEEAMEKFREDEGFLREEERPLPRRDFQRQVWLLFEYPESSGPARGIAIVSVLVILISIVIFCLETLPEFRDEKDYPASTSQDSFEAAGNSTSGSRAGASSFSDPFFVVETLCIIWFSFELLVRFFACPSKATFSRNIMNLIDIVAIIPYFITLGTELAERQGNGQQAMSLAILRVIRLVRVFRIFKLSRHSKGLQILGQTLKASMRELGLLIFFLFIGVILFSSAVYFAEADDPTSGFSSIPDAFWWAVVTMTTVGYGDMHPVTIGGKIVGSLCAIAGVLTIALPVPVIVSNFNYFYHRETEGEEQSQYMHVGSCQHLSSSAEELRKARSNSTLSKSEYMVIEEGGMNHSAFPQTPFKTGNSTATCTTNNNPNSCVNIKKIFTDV

In the case of BmKTX (from UniProt Q9NII7), the Kd [1] is listed as 0.2 nM.
In the case of Maurotoxin (MTX) (from UniProt P80719), the Kd [2] is given as 1 nM.
For “Charybdotoxin (ChTx) (from UniProt P13487)”, the Kd [3] is given as 5 nM.
In the case of Margatoxin (from UniProt P40755), the Kd [4] is given as 0.11 nM.
